The source of these data is publication PMC6954272, “Structure and dynamics of the E. coli chemotaxis core signaling complex by cryo-electron tomography and molecular simulations” (Communications Biology, 2020).

The target in series [1] is His6-tagged 4Q variant of the cytoplasmic fragment of the E. coli aspartate receptor Tar (His6-TarCF4Q) (E. coli) (UniProt P07017). The series can be described thus: cryo-EM structure; cryo-electron tomography and sub-tomogram averaging of arrays reconstituted in vitro; His6-TarCF held on a Ni2+-NTA lipid monolayer; 9:18:18 µM TarCF:CheA:CheW; 75 mM Tris-HCl pH 7.4, 100 mM KCl, 5 mM MgCl2; overnight.

Series [2] concerns the molecule itself. The series is described as above.

A word on the stoichiometry N: it is the number of molecules, sites or subunits per partner or assembly. On to “His6-tagged 4Q variant of the cytoplasmic fragment of the E. coli aspartate receptor Tar (His6-TarCF4Q) (from UniProt P07017 357-553) (domain or fragment)”, for which the stoichiometry N in series [1] came to 6.

B1: E. coli histidine kinase CheA, domains P3-P4-P5 (P1-P2 deleted) (domain or fragment, UniProt P07363 264-654, looked up)
chain: IRVAVEKVDQLINLVGELVITQSMLAQRSSELDPVNHGDLITSMGQLQRNARDLQESVMSIRMMPMEYVFSRYPRLVRDLAGKLGKQVELTLVGSSTELDKSLIERIIDPLTHLVRNSLDHGIELPEKRLAAGKNSVGNLILSAEHQGGNICIEVTDDGAGLNRERILAKAASQGLTVSENMSDDEVAMLIFAPGFSTAEQVTDVSGRGVGMDVVKRNIQKMGGHVEIQSKQGTGTTIRILLPLTLAILDGMSVRVADEVFILPLNAVMESLQPREADLHPLAGGERVLEVRGEYLPIVELWKVFNVAGAKTEATQGIVVILQSGGRRYALLVDQLIGQHQVVVKNLESNYRKVPGISAATILGDGSVALIVDVSALQAINREQRMANTAA
notes: Histidine kinase CheA, E. coli, domains P3, P4 and P5 (pQM12: based on pKJ9 with del P1-P2); the atomic model covers residues 264-646; The methods also name pKJ9 (full-length CheA); the results say that CheA.P3-P4-P5 stood in the monolayer arrays; also called CheA.P3-P4-P5; CheA.P3.P4.P5; source: E. coli RP3098, plasmid pQM12, purified (Affi-gel Blue, Superdex 200, Mono Q)
On to B1, for which the stoichiometry N (CheA per receptor trimer-of-dimers (TOD)) in series [1] stood at 1. Besides, the “stoichiometry N” value in series [2] stood at 2.

B2: E. coli adaptor protein CheW (natural protein)
chain: MTGMTNVTKLASEPSGQEFLVFTLGDEEYGIDILKVQEIRGYDQVTRIANTPAFIKGVTNLRGVIVPIVDLRIKFSQVDVDYNDNTVVIVLNLGQRVVGIVVDGVSDVLSLTAEQIRPAPEFAVTLSTEYLTGLGALGDRMLILVNIEKLLNSEEMALLDSAASEVA
In series [1], B2 came in with a stoichiometry N (CheW per receptor trimer-of-dimers (TOD)) of 2.
